# Data published in US20250011363A1, “OPTIMIZED SHORTENED PEPTIDE THAT BINDS TO ACETYLCHOLINE RECEPTOR, AND USE THEREOF” (SKINMED CO., LTD., priority 2021, published 2025).
# Biological target: acetylcholine receptor
# Test: SPR, peptide at 10 uM, AchR immobilized
row,Binder,Binding affinity
1,KKIWKR [6mer-1-675],21 RU
2,RKYTKR [6mer-1-694],27 RU
3,RRAMPK [6mer-1-673],16 RU
4,KRFNHK [6mer-1-698],27 RU
5,KRNNDR [6mer-1-684],20 RU
6,KRCPWR [6mer-1-676],16 RU
7,RKATVK [6mer-1-668],17 RU
8,RKNTHK [6mer-1-692],22 RU
9,KKCCFR [6mer-1-677],22 RU
10,RKMEIR [6mer-1-672],17 RU
11,KKDWNR [6mer-1-670],11 RU
12,KKHCNR [6mer-1-696],18 RU
13,KKYEVR [6mer-1-686],25 RU
14,KKAANK [6mer-1-666],18 RU
15,RKHPKK [6mer-1-674],32 RU
16,RRPTNR [6mer-1-697],13 RU
17,RKDEVR [6mer-1-688],33 RU

row,Binder,Binding affinity
1,KKAEER [6mer-1-679],30 RU
2,KRADVK [6mer-1-695],13 RU
3,KRDSPK [6mer-1-667],32 RU
4,KRDSMR [6mer-1-683],16 RU
5,RRESWK [6mer-1-685],14 RU
6,KKDPPR [6mer-1-680],27 RU
7,KRNMAK [6mer-1-669],23 RU
8,KREAER [6mer-1-690],21 RU
9,RKPKAR [6mer-1-691],31 RU
10,KKEWKK [6mer-1-681],32 RU
11,KRCPVR [6mer-1-689],11 RU
12,RKIDMK [6mer-1-693],22 RU
13,KKKDIR [6mer-1-682],30 RU
14,RREWIK [6mer-1-687],23 RU
15,KKNMVR [6mer-1-671],11 RU
16,KRMAAK [6mer-1-678],25 RU

# Biological target: acetylcholine receptor
# Test: SPR, peptide at 10 uM on immobilised AchR
row,Binder,Binding affinity (RU)
1,KKWVSR [6mer-1-63],148 RU
2,KRVIQR [6mer-1-53],123 RU
3,RKSVTR [6mer-1-58],126 RU
4,KRSYCK [6mer-1-61],121 RU
5,RKQFTK [6mer-1-64],154 RU
6,RKGLTK [6mer-1-45],145 RU
7,RRRVCK [6mer-1-54],144 RU
8,KRLQCK [6mer-1-59],145 RU
9,RRRFLR [6mer-1-52],131 RU
10,RRGIQR [6mer-1-56],137 RU
11,RRSYTR [6mer-1-67],135 RU
12,RRVLYK [6mer-1-51],127 RU
13,RKSIQK [6mer-1-60],139 RU
14,KKVRTR [6mer-1-50],139 RU
15,RKLQLK [6mer-1-68],153 RU
16,KRSIYR [6mer-1-55],133 RU
17,RRWFTK [6mer-1-62],133 RU
18,RKQYYK [6mer-1-57],139 RU
19,RRWQTR [6mer-1-49],149 RU
20,KKSISR [6mer-1-66],147 RU
21,KRRLLK [6mer-1-47],149 RU
22,KRLYQR [6mer-1-46],142 RU
23,KKSRRR [6mer-1-65],121 RU
24,RRWVRR [6mer-1-48],124 RU
